Laboratory results published in publication PMC7511963 (NPJ Vaccines, 2020).

T1: HPV16 L1L2 pseudovirus (Human papillomavirus type 16, L1 …)
T1 construct: also called HPV16 PsV; HPV16 PsVs; copies: 360 +
T1 chain: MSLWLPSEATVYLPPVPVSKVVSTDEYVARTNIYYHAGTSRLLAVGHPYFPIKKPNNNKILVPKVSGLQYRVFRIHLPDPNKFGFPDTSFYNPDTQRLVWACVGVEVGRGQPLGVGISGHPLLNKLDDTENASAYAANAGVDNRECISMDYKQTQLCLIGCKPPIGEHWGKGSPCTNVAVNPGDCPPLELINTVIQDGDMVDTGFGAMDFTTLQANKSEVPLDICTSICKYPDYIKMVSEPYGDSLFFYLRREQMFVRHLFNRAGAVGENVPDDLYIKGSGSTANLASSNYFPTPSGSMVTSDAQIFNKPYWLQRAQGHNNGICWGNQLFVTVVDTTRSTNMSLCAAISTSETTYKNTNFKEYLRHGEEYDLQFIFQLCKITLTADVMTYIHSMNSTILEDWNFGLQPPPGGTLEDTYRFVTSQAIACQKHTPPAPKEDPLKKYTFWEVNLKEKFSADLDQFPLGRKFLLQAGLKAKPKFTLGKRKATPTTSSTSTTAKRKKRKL

B1: rabbit monoclonal antibody H16.001 (antibody, V domains shown)
VH: QSVKESEGRLVTPGTPLTLTCTASGFTMSRYHMTWVRQAPGKGLEWIGIIYARNSDTYYANWAKGRFTISKTSTTVDLKITSPTIEDTATYFCARVDSDSSGAFDRLDLWGQGTLVTVSS
VL: DPMLTQTAASVEVAVGGTVTIKCQASQSIGGYLSWYQQKPGQRPKLLIYRASTLASGVPSRFKGSGSGTEYTLTFSGVECADAAAYYCQQGYTSSDINNAFGGGTEVVVK
B2: H16.001 Fab (Fab, V domains shown)
VH: B1 VH
VL: B1 VL
notes: also called Fab H16.001; H16.001 Fabs

Columns and labels:
[1] = target: HPV16 L1L2 pseudovirus (human papillomavirus type 16) (UniProt P03101)
[2] = target: T1, HPV16 L1L2 pseudovirus; assay: cryo-EM structure; conditions: both partners purified

Binder	PsV-based neutralization assay on 293FT cells: IC50, the antibody concentration required to block viral entry by 50% [1] [ng/mL]	stoichiometry N [2] [Fabs per capsid]
B1	0.4	–
B2	–	360
